US10562947B2, “Compositions and methods for preventing or treating diseases, conditions or processes characterized by aberrant fibroblast proliferation and extracellular matrix deposition” (MOERAE MATRIX, INC., priority 2011, dated 2020)

Assays:
Test in all cases: Kinase Profiling Assay
Assay type in all cases: biochemical
Details in all cases: 100 μM peptide
AMPKα1(h) = AMPKα1(h) (Homo sapiens, UniProt Q13131)
Procedure, shortened: (§1)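 Read-out is kinase activity, measured twice per kinase, across 266 human kinases exposed to MK2 inhibitory peptides in a specificity screen.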

BrSK1(h) = molecular target: T1, BrSK1(h) (Homo sapiens, UniProt Q8TDC3)
T1 sequence (Q8TDC3 1-778): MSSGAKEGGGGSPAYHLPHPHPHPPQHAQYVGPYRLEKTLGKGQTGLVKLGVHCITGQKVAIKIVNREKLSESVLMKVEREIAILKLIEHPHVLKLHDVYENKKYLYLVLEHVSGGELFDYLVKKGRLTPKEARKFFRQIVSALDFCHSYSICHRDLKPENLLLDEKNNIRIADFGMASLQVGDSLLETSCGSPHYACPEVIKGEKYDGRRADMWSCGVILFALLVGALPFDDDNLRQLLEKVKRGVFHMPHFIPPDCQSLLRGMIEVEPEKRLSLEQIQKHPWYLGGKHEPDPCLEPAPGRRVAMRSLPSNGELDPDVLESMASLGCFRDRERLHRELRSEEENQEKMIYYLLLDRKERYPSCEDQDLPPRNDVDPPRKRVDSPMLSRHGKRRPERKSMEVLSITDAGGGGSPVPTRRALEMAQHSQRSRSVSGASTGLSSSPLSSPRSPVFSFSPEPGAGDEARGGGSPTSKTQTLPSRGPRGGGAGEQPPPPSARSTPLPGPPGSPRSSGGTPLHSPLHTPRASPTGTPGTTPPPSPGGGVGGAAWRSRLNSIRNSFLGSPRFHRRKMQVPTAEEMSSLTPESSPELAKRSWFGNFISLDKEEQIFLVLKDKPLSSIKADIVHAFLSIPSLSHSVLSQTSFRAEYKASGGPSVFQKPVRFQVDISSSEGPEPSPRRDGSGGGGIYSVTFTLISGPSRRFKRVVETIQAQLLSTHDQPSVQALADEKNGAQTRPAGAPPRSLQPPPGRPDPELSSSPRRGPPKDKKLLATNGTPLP
Procedure, shortened: as §1

EGFR(L861Q)(h) = EGFR(L861Q)(h) (Homo sapiens, UniProt P00533, L861Q)
Procedure, shortened: as §1

MKK6(h) = molecular target: T2, MKK6(h) (Homo sapiens, UniProt P52564)
T2 sequence (P52564 1-334): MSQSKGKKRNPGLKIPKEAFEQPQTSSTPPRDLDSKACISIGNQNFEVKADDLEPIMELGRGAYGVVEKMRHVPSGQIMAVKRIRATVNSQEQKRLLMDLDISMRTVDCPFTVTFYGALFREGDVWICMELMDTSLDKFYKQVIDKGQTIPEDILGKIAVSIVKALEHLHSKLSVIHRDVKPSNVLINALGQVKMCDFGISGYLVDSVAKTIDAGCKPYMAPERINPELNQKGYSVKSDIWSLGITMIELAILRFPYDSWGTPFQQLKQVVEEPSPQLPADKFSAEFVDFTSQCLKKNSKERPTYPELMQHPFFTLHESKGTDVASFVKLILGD
Procedure, shortened: as §1

PrKX(h) = molecular target: T3, PrKX(h) (Homo sapiens, UniProt P51817)
T3 construct: purchased Millipore (IC50 Profiler Express service)
T3 sequence (P51817 1-358): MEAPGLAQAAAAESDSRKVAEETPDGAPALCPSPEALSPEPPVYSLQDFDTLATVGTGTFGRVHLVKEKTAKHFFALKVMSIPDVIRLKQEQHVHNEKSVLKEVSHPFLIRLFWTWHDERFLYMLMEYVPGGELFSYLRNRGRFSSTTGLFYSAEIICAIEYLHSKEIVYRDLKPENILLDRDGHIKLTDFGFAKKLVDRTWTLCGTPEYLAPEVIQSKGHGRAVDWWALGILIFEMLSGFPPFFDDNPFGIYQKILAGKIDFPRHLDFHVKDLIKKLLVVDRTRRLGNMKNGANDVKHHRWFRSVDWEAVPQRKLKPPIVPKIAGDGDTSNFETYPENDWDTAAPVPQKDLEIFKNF
Procedure, shortened: as §1

TAO1(h) = molecular target: T4, TAO1(h) (Homo sapiens, UniProt Q7L7X3)
T4 sequence (Q7L7X3 1-1001): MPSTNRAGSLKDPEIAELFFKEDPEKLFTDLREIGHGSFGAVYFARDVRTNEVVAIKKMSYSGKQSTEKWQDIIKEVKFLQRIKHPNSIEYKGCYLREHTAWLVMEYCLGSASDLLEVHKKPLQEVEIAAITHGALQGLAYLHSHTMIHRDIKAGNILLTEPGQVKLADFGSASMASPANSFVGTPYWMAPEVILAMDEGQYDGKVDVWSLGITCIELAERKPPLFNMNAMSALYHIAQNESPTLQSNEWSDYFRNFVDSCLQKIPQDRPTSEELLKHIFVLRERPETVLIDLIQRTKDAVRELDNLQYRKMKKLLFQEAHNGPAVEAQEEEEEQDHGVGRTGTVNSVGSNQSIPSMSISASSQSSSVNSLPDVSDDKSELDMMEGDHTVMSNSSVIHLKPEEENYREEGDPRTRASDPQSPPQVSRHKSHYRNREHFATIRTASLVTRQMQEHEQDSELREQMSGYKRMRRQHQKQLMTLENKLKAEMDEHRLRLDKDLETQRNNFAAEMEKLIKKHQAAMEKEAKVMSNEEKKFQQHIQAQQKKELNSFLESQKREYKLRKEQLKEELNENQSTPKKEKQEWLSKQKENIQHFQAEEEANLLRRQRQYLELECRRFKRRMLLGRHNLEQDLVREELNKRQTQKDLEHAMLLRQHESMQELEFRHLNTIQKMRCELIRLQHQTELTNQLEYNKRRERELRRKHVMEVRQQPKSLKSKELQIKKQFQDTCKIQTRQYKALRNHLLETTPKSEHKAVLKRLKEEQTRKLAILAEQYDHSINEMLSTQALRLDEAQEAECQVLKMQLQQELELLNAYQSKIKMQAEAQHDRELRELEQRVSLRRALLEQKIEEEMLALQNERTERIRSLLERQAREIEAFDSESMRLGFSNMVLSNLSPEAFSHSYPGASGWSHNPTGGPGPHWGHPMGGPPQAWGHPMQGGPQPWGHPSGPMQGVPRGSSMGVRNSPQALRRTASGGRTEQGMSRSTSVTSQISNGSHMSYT
Procedure, shortened: as §1

AMPKα1(h), sequence (Q13131 whole entry): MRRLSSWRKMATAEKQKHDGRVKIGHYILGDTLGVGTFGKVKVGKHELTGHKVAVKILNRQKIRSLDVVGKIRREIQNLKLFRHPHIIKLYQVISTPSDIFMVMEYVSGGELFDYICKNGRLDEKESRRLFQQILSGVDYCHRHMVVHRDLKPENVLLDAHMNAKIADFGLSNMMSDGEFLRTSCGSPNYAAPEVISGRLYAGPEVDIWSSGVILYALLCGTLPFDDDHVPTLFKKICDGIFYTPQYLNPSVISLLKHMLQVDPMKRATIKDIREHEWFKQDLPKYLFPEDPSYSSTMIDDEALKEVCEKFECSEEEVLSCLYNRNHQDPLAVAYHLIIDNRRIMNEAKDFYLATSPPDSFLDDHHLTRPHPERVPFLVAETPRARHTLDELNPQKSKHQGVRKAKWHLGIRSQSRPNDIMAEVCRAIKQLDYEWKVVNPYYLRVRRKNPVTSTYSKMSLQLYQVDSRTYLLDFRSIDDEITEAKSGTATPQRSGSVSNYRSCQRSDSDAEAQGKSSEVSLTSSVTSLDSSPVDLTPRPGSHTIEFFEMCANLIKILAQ
AMPKα1(h), sequence (Q9Y478 whole entry partner): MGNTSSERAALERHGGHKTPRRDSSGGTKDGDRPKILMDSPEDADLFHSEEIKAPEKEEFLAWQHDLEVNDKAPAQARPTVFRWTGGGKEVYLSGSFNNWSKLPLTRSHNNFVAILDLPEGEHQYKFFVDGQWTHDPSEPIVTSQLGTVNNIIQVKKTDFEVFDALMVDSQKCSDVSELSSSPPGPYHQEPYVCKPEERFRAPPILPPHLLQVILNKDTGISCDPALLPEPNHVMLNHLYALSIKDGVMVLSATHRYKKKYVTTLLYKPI
AMPKα1(h), sequence (P54619 whole entry partner): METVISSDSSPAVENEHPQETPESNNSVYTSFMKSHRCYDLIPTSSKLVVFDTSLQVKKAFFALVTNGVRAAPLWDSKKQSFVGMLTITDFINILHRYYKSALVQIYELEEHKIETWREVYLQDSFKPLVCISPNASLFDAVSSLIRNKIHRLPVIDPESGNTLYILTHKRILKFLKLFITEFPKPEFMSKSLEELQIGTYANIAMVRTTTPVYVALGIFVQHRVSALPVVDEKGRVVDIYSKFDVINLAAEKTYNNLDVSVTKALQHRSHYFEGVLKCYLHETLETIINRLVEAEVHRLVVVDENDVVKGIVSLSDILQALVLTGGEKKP

Sequence: FAKLAARLYRKALARQLGVAA [MMI-0300]
- AMPKα1(h) % activity (AMPKα1(h)): 71%
- BrSK1(h) % activity (BrSK1(h)): 67%
- EGFR(L861Q)(h) % activity (EGFR(L861Q)(h)): 25%
- MKK6(h) % activity (MKK6(h)): 48%
- PrKX(h) % activity (PrKX(h)): 61%
- TAO1(h) % activity (TAO1(h)): 82%

Sequence: KAFAKLAARLYRKALARQLGVAA [MMI-0400]
- AMPKα1(h) % activity (AMPKα1(h)): 87%
- BrSK1(h) % activity (BrSK1(h)): 76%
- EGFR(L861Q)(h) % activity (EGFR(L861Q)(h)): 22%
- MKK6(h) % activity (MKK6(h)): 44%
- PrKX(h) % activity (PrKX(h)): 76%
- TAO1(h) % activity (TAO1(h)): 73%

Sequence: YARAAARQARAKALNRQLGVA (Mammalian) [MMI-0200]
- AMPKα1(h) % activity (AMPKα1(h)): 108%
- BrSK1(h) % activity (BrSK1(h)): 93%
- EGFR(L861Q)(h) % activity (EGFR(L861Q)(h)): 74%
- MKK6(h) % activity (MKK6(h)): 98%

Sequence: HRRIKAWLKKIKALARQLGVAA (Mammalian) [MMI-0500]
- AMPKα1(h) % activity (AMPKα1(h)): 35%
- BrSK1(h) % activity (BrSK1(h)): 72%
- EGFR(L861Q)(h) % activity (EGFR(L861Q)(h)): 15%
- MKK6(h) % activity (MKK6(h)): 18%
- PrKX(h) % activity (PrKX(h)): 57%
- TAO1(h) % activity (TAO1(h)): 24%
